Numbering of substitutions follows the chain as printed. Numbers in names are those of the source.
T1: human ASIC1 (human, UniProt P78348 1-528)
T1 sequence: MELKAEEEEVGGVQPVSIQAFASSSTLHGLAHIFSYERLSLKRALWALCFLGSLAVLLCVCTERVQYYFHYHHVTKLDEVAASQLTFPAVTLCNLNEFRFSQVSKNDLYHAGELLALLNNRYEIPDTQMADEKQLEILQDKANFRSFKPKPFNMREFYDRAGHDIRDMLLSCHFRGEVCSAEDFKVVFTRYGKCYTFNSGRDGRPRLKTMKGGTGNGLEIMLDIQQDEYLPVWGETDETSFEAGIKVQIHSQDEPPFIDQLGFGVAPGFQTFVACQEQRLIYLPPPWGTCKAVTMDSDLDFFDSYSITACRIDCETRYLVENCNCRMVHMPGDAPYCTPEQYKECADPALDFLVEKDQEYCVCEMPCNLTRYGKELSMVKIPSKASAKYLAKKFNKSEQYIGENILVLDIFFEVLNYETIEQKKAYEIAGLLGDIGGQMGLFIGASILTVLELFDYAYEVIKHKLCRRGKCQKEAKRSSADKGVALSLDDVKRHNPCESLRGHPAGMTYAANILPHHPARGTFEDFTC

T2: mouse ASIC1a (mouse, UniProt Q6NXK8 1-526)
T2 sequence (looked up): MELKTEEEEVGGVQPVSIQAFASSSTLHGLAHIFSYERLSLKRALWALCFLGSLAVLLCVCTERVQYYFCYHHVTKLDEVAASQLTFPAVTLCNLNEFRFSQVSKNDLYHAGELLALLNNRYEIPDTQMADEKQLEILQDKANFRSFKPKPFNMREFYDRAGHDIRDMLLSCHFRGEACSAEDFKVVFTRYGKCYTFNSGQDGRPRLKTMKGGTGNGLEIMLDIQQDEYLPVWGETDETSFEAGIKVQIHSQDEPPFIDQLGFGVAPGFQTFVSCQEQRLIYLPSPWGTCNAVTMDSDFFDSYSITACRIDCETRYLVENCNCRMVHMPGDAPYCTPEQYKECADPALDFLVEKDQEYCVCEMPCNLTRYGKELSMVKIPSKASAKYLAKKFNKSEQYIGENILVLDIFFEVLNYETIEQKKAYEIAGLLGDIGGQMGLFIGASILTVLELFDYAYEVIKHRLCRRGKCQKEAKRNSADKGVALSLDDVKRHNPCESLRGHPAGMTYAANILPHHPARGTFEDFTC

T3: human ASIC3 (human, UniProt Q9UHC3 1-531)
T3 construct: whole, on cells; Expressed on 3T3 cells (3T3/hASIC3) or HEK293 cells (HEK/hASIC3-QCells); also called hASIC3
T3 sequence (looked up): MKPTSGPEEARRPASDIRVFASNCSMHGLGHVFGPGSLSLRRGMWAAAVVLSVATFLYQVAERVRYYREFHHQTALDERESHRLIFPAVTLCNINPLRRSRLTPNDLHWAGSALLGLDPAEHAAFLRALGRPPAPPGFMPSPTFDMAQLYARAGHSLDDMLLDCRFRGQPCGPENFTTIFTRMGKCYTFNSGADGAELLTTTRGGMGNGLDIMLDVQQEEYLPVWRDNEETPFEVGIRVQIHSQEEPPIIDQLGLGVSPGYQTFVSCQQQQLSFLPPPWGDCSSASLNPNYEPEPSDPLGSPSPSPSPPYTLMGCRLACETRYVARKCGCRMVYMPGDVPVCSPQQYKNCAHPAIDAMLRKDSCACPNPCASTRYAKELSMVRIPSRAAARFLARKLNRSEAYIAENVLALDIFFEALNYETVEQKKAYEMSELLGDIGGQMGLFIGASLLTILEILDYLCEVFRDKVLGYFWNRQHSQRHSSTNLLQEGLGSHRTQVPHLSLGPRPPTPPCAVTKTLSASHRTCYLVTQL

T4: human ASIC1/ASIC3 channels (co-expressed human ASIC1a and human ASIC3) (human, UniProt Q9UHC3 1-531)
T4 construct: whole, on cells; 3T3 cells co-expressing both subunits; also called 3T3/hASIC1/3; 3T3-hASIC1/ASIC3
T4 sequence 1: T1 sequence
T4 sequence 2: T3 sequence (looked up)

B1: H4H6721N2 (antibody, human IgG4, V domains shown)
VH: EVQLLASGGGLVQPGGSLRLSCAASGFTFSSFAMSWVRQAPGKGLEWVSGISGSGVSTYYADSVKGRFTISRDNSKNTLYLQMNSLRAEDTAAYYCAKEAYKWQPWGQGTLVTVSS
VL: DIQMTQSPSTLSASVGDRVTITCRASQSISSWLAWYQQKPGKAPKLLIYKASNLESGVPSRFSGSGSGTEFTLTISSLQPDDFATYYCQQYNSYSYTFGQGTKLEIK
B2: H3M7118N (antibody, V domains shown)
VH: EVQLLESGGGLVQPGGSLRLSCAASGFTFRNYAMSWVRQAPGKGLEWVSAINGGGDSTYYADSVKGRFTISRDNSKNTLYLQMNSLRAEDTAVYYCAKEEGDWNYVGYGYYYYYGMDVWGQGTTVTVSS
VL: DIQMTQSPSSMSASVGDRVTITCRASQGISSWLAWYQQKPGKAPKLLIYAASSLQSGVPSRFSGSGSGTDFTLTIRSLQPEDFATYYCQQANSFPYTFGQGTKLEIK
notes: Chimeric: human variable, mouse constant domains; H3M prefix marks the Fc, isotype not spelled out
B3: H4H7101N (antibody, human IgG4, V domains shown)
VH: B1 VH with P14T, V56G, T110I, L111R
VL: DIQMTQSPSTLSASVGDRVTITCRASQSISSWLAWYQQKPGKAPNLLIYKTSNLESGVPSRFSGSGSGTEFTLTISSLQPDDFATYYCQQYNSYSYTFGQGTKLEIK
B4: H3M6715N (antibody, V domains shown)
VH: EELVLESGGGLVQPGGSLRLSCAASGFMFSTYAMSWVRQAPGKGLEWVSLISGRDGNTYYADSVKGRFTISRDNSRNTLYLQLNSLRAEDTALYYCAKDTAVVPGYGMDVWGQGTTVTVSS
VL: DIQMTQSPATLSASVGDRVTITCRASQTISNWLAWYQQRPGKAPKLLIYKASSLETGVPSRFSGSGSGTEFTLTISSLQPDDFASYYCQQYNSYSWTFGQGTKVEIK
notes: as for B2
B5: H3M6713N (antibody, V domains shown)
VH: B4 VH with N57S, N74I, Q82H, L93V, M108L
VL: B4 VL
notes: as for B2
B6: H3M6760N (antibody, V domains shown)
VH: B4 VH with E2D, L3R, T31S, L93V
VL: B4 VL with A9S, T28S, T56S
notes: as for B2
B7: H1M6712N (antibody, mouse IgG1, V domains shown)
VH: QVQLVQSGAEVKKPGASMKVSCKASGYTFTIYDINWVRQATGQGLEWMGWMNPRSGSTGYSQKFQGRVTMTRNTSINTAFMELSSLRSDDTAVYYCVRGQLVLGYWGQGTLVTVSS
VL: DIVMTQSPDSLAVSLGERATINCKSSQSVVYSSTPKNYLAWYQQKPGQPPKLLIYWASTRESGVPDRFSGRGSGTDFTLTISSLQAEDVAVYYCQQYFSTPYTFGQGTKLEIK
B8: H4H6364P (antibody, human IgG4, V domains shown)
VH: EVQLVESGGGLVQSGGSLRLSCAASGFTFSRYWMSWVRQAPGKGLEWVANIKQDGSEKDYVDSVKGRFTISRDNTKSSLFLQMNSLRAEDTAVYYCAKERWNWNFFDYWGQGTLVTVSS
VL: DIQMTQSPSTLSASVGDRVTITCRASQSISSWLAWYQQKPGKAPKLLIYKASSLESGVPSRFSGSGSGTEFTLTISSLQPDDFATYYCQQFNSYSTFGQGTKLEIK

Each binder was assayed against T1, human ASIC1 (assay: cell-based or functional assay).

Binder	apparent IC50, human ASIC1 current, Q-Patch [nM]
B1	< 1
B2	≤ 10

What follows are binders tested against T2, mouse ASIC1a (assay: cell-based or functional assay).

Binder	apparent IC50, mouse ASIC1 current, Q-Patch [nM]
B2	< 25

Each binder was assayed against T3, human ASIC3 (assay: FACS, 3T3/hASIC3 cells).
From the text: (§1) For these experiments, four cell lines were constructed: (a) a mouse fibroblast 3T3 cell line stably transfected to overexpress full length human ASIC3 (3T3/hASIC3; amino acids 1-531 of NCBI accession number NP_{—}004760.1), (b) a 3T3 cell line stably transfected to co-express full length human ASIC1a and human ASIC3 (3T3/hASIC1/3; amino acids 1-528 of NCBI accession number NP_{—}001086.2 and amino acids 1-531 of NCBI accession number NP_{—}004760.1), (c) […] a stably transfected 3T3 cell line expressing the full-length mouse ASIC3 channel (3T3/mASIC3; amino acids 1-530 of NCBI accession number NP_{—}892045.2), and (d) a 3T3 cell line stably transfected to co-express full length mouse ASIC1a and mouse ASIC3 (3T3/mASIC1/3; amino acids 1-526 of NCBI accession number NP_{—}033727 and amino acids 1-530 of NCBI accession number NP_{—}892045.2). Antibody binding was determined using flow cytometry (FACS).
(§2) To perform the FACS binding experiments, adherent cells were collected with cold Millipore Accutase 3-5 minutes, spun and resuspended in ice-cold FACS buffer (PBS, 2% HI-FBS and 0.09% Na-azide). Anti-ASIC1 antibody at final concentrations of 10 nM was added for 20-30 minutes on ice. Cells were washed with 900 μL ice-cold FACS buffer, spun, and resuspended in 100 μL ice-cold FACS buffer. A secondary antibody which recognizes human Fc (Jackson Immuno Research, #109-136-098) and is conjugated to allophycocyanin, was then added to the cell mixture at a final concentration of 2.5 ug/mL. After incubating for 20 minutes on ice, the cells were washed and resuspended in FACS buffer, then sorted and analyzed on a flow cytometer (FACSCanto II, BD Biosciences, San Jose, Calif.) to determine relative binding by the candidate antibodies to the tested cell lines. Histograms of cells stained with anti-ASIC1 antibodies were compared with those of cells stained with secondary antibody alone. Percentage of ASIC1 signal over secondary antibody alone was calculated using FlowJo software (Tree Star, Ashland, Oreg.).

Binder	binding result
B1	no binding (tested: 10 nM; gated lower than 1%)
B3	no binding (tested: 10 nM; gated lower than 1%)
B4	no binding (tested: 10 nM; gated lower than 1%)
B5	no binding (tested: 10 nM; gated lower than 1%)
B6	no binding (tested: 10 nM; gated lower than 1%)

Target: T1, human ASIC1
Assay: cell-based or functional assay
Remark: another data set of the same source

Binder	FLIPR Dose Curve, pH 5.0 % Block [%]	FLIPR Dose Curve, pH 5.5 % Block [%]	FLIPR Dose Curve, pH 5.5 IC50 [nM]	FLIPR Dose Curve, pH 5.0 IC50 [nM]
B7	10	64	6	
B4	10	39	0.1	
B5	23	63	0.2	
B6	56	71	0.9	1

Target: T1, human ASIC1
Assay: cell-based or functional assay
Remark: another data set of the same source

Binder	Current inhibition (%) at 100 nM antibody, Q-Patch, pH 6.0 [%]
B7	0
B8	0
B4	30

These binders were tested against T1, human ASIC1 (assay: FACS titration, 3T3/hASIC1 cells).
Protocol: To perform the FACS binding experiments, adherent cells were collected using 1 mM EDTA in PBS, then washed, and re-suspended in cold PBS containing 5% FBS. For each binding experiment, each anti-ASIC1 antibody ([…] or ND7 cells) was added to 250,000 cells in 500 μL of PBS with 5% FBS. After incubation for 20 minutes at room temperature, a secondary antibody which recognizes human Fc (Cat. No. 109-136-098, Jackson ImmunoResearch Laboratories, Inc., West Grove, Pa.) or mouse Fc (Cat. No. 550826, BD Biosciences, San Jose, Calif.) and is conjugated to allophycocyanin, was then added to the cell mixture at a final concentration of 13.3 nM. After incubating for 20 minutes on ice, the cells were washed and resuspended in PBS containing 5% FBS, then sorted and analyzed on a flow cytometer (FACSCalibur, BD Biosciences, San Jose, Calif.) to determine relative binding by the candidate antibodies to the tested cell lines. Histograms of cells stained with anti-ASIC1 antibodies were compared with those of cells stained with secondary antibody alone. Percentage of ASIC1 signal over secondary antibody alone was calculated using FlowJo software (Tree Star, Ashland, Oreg.).

Binder	EC50 [nM]
B1	1.7
B2	> 67
B7	< 0.1
B8	1.5
B4	0.072
B5	0.215
B6	0.853

The binders below were run against T3, human ASIC3 (assay: FACS, 3T3/hASIC3 cells, 10 nM antibody).
From the text: as §1, §2

Binder	binding result
B7	binds
B8	binds

The binders below were run against T4, human ASIC1/ASIC3 channels … (assay: FACS, 3T3/hASIC1/3 cells, 10 nM antibody).
From the text: as §1, §2

Binder	binding result
B1	binds
B3	binds
B7	binds
B8	binds
B4	binds
B5	binds
B6	binds

Source: patent US20140056907A1 (Regeneron, published 2014)
